B1: Gli3(280-478), wild type [modified: [35S]-methionine labelled; [35S]-methionine labelled] [human] / GST-JNK3 [human] (parent complex)
chain 1: SSPRLSARPSRKRTLSISPLSDHSFDLQTMIRTSPNSLVTILNNSRSSSSASGSYGHLSASAISPALSFTYSSAPVSLHMHQQILSRQQSLGSAFGHSPPLIHPAPTFPTQRPIPGIPTVLNPVQVSSGPSESSQNKPTSESAVSSTGDPMHNKRSKIKPDEDLPSPGARGQQEQPEGTTLVKEEGDKDESKQEPEVIY
chain 2: MSLHFLYYCSEPTLDVKIAFCQGFDKQVDVSYIAKHYNMSKSKVDNQFYSVEVGDSTFTVLKRYQNLKPIGSGAQGIVCAAYDAVLDRNVAIKKLSRPFQNQTHAKRAYRELVLMKCVNHKNIISLLNVFTPQKTLEEFQDVYLVMELMDANLCQVIQMELDHERMSYLLYQMLCGIKHLHSAGIIHRDLKPSNIVVKSDCTLKILDFGLARTAGTSFMMTPYVVTRYYRAPEVILGMGYKENVDIWSVGCIMGEMVRHKILFPGRDYIDQWNKVIEQLGTPCPEFMKKLQPTVRNYVENRPKYAGLTFPKLFPDSLFPADSEHNKLKASQARDLLSKMLVIDPAKRISVDDALQHPYINVWYDPAEVEAPPPQIYDKQLDEREHTIEEWKELIYKEVMNSEEKTKNGVVKGQPSPSAQVQQ
B2: Gli3(280-478), wild type [modified: [35S]-methionine labelled; [35S]-methionine labelled] [human] / GST-JNK1 [human] (parent complex)
chain 1: B1 chain 1
chain 2: MSRSKRDNNFYSVEIGDSTFTVLKRYQNLKPIGSGAQGIVCAAYDAILERNVAIKKLSRPFQNQTHAKRAYRELVLMKCVNHKNIIGLLNVFTPQKSLEEFQDVYIVMELMDANLCQVIQMELDHERMSYLLYQMLCGIKHLHSAGIIHRDLKPSNIVVKSDCTLKILDFGLARTAGTSFMMTPYVVTRYYRAPEVILGMGYKENVDLWSVGCIMGEMVCHKILFPGRDYIDQWNKVIEQLGTPCPEFMKKLQPTVRTYVENRPKYAGYSFEKLFPDVLFPADSEHNKLKASQARDLLSKMLVIDASKRISVDEALQHPYINVWYDPSEAEAPPPKIPDKQLDEREHTIEEWKELIYKEVMDLEERTKNGVIRGQPSPLAQVQQ

Variants of: B1
Assay: GST pull-down of in vitro translated protein, quantified; 20 µg GST-JNK3; read off a plot

Variant | response
chain 1 R11A, chain 1 K12A, chain 1 R13A, chain 1 L15A, chain 1 I17A | ~0.35 % of input (axis unlabelled; 5% input bar = 5)

Variants of: B2
Assay: GST pull-down of in vitro translated protein, quantified; 30 µg GST-JNK1; read off a plot

Variant | response
chain 1 R11A, chain 1 K12A, chain 1 R13A, chain 1 L15A, chain 1 I17A | ~0.2 % of input (axis unlabelled; 5% input bar = 5)
